From patent US20190352422A1 (PCM TARGETECH, published 2019)

Legend:
[1] = target: T1, human RON receptor (human, UniProt Q04912 25-1400); test: cell-based or functional assay
[2] = target: T1, human RON receptor; test: flow cytometry on HT29 cells, FITC-coupled anti-human IgG1 secondary
Protocol: Colon cancer HT29 cell line expressing ˜19,000 RON molecules per cell were used as the model. Mouse PCM5B14 was used as the positive control. Individual H5B14 clones at different concentrations were incubated with cells followed by addition of FITC-coupled anti-human IgG1 antibody. Fluorescence intensities from individual samples were analyzed using the BD flow cytometer. Results in FIG. 2 are the dose-dependent specific binding of individual H5B14s. […] Results in Table 1 show the individual values reflecting the binding affinity and sensitivity of individual H5B14 clones to human RON receptor.

Internalization efficacy of cell surface RON (EC50, hours), Breast T-47D [1] [h] | Internalization efficacy of cell surface RON (EC50, hours), Colon HT-29 [1] [h] | Internalization efficacy of cell surface RON (EC50, hours), Lung H358 [1] [h] | Internalization efficacy of cell surface RON (EC50, hours), Pancreatic L3.6p1 [1] [h] | EC50 [2] [µg/mL] | LogEC50 [2] | Binder
8.26 | 5.33 | 7.94 | 8.17 | 2.22 | 0.346 log(µg/ml) | Humanized PCM5B14 H2L4 (IgG1/κ, designated as H5B14) (antibody, V domains shown, also called H5B14H2L4; Humanized 5B14) VH: QVQLVQSGAEVKKPGATVKISCKVSGYTFTDYHMDWVQQAPGKGLEWMGDINPNNGGAIYNQKFKGRVTITADTSTDTAYMELSSLRSEDTAVYYCARSHYDYAGGAWFAYWGQGTLVTVSR VL: EIVMTQSPGTLSLSPGERATLSCKSSQSLLFSGNQKNYLAWYQQKPGQAPRLLIYWASTRASGIPDRFSGSGSGTDFTLTISRLEPEDFAVYYCQQYYSFPRTFGQGTKLEIKR
23.5 | 11 | 7.47 | 14.1 |  |  | Mouse Zt/g4 (antibody, from another filing, V domains shown) VH: EVQLQQSGAELVKPGASVKLSCTTSGFNIIDTYIHWVNQKPDQGLEWIGRIDPADGNRKSDPKFQVKATITVDTSSNTAYLQLSSLTSGDTAVYYCARGYGNLNAMDSWGQGTSVTVSS VL: DIQMNQSPSSLSASLGDTITITCHASQNINVWLNWYQQKPGNIPKLLIYKASNLHTGVPSRFSGSGSGTGFTLTISSLQPEDIATYYCQQGQSYPLTFGGGTKLEIK
